Experimental data: article doi:10.1101/2025.11.27.690710, “Direct recruitment of RNA Polymerase II by NANOG to activated target genes” (bioRxiv, 2025)

Target: the molecule itself
Assay: BASIL (Bead Assay of Interacting Ligands); biotinylated oligonucleotide with a single NANOG site on streptavidin beads, incubated with rNANOG at 1mg/ml for 1 hour, washed, then with fluorescein amidite labelled oligonucleotide of the same sequence; fluorescence on the bead only if NANOG is a multimer

B1: Recombinant full length NANOG, purified and refolded (natural protein, mouse, UniProt Q80Z64 1-305, looked up)
chain: MSVGLPGPHSLPSSEEASNSGNASSMPAVFHPENYSCLQGSATEMLCTEAASPRPSSEDLPLQGSPDSSTSPKQKLSSPEADKGPEEEENKVLARKQKMRTVFSQAQLCALKDRFQKQKYLSLQQMQELSSILNLSYKQVKTWFQNQRMKCKRWQKNQWLKTSNGLIQKGSAPVEYPSIHCSYPQGYLVNASGSLSMWGSQTWTNPTWSSQTWTNPTWNNQTWTNPTWSSQAWTAQSWNGQPWNAAPLHNFGEDFLQPYVQLQQNFSASDLEVNLEATRESHAHFSTPQALELFLNYSVTPPGEI
notes: NANOG, mouse, full length; Forms multimers by the BASIL assay; the size of the oligomer is not measured here; also called purified NANOG; rNANOG
binding result: binds
